T1: PET28-NgAP2a (Nannochloropsis gaditana, UniProt W7TGT1 140-326)
T1 sequence: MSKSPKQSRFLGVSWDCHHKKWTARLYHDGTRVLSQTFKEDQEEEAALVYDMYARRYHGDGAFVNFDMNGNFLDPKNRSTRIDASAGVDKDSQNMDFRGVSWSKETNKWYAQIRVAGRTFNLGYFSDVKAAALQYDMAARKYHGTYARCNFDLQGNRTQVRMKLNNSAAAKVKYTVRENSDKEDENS


What was measured:
PET28-NgAP2a [1] = target: T1, PET28-NgAP2a; experiment: EMSA; Beyotime Chemiluminescent EMSA Kit GS009 per manual; buffer, salt, pH and temperature not stated; settings: protein: recombinant; label: 3' biotin; blunt
PET28-NgAP2a [2] = target: T1, PET28-NgAP2a; experiment: competition; 100x unlabeled vs biotin M5 probe; Beyotime Chemiluminescent EMSA Kit GS009 per manual; buffer, salt, pH and temperature not stated; settings: protein: recombinant; label: none (unlabeled); blunt

Binder	binding result (PET28-NgAP2a [1])	binding result (PET28-NgAP2a [2])
M3 probe (EMSA3) (dsDNA) DNA 1: GGCGTTGCCACTTGGGCAAAGAAAAGCTGG DNA 2: CCAGCTTTTCTTTGCCCAAGTGGCAACGCC	no binding	–
M5 probe (EMSA5) (dsDNA) DNA 1: CTCATTCCCATACCGCAAGTACCTGACCCTGTA DNA 2: TACAGGGTCAGGTACTTGCGGTATGGGAATGAG	binds	–
unlabeled M5 competitor (dsDNA) DNA 1: CTCATTCCCATACCGCAAGTACCTGACCCTGTA DNA 2: TACAGGGTCAGGTACTTGCGGTATGGGAATGAG	–	binds
mutant M5 competitor (mu_EMSA5) (dsDNA) DNA 1: CTCATTCCCATAAAACAAGTACCTGACCCTGTA DNA 2: TACAGGGTCAGGTACTTGTTTTATGGGAATGAG	–	no binding

Source: publication PMC11477109, “NgAP2a Targets KCS Gene to Promote Lipid Accumulation in Nannochloropsis gaditana”
